Consider 6 proteins from PMC5793714, “Functional implications of corticosteroid-binding globulin N-glycosylation” (Journal of Molecular Endocrinology, 2017).

A short description of one series: Western blot of medium. Conditions: glycan lost, control: untreated CHO-S cells.
A short description of series [1]: loss of cortisol-binding capacity after protease incubation. Conditions: glycan lost; control: un-mutated CBG.
Series [2] in a line: Western blot of culture medium. Conditions: glycan lost; control: rat CBG.

B1: human CBG (corticosteroid-binding globulin): tunicamycin (human CBG) (protein)
parent chain: MPLLLYTCLLWLPTSGLWTVQAMDPNAAYVNMSNHHRGLASANVDFAFSLYKHLVALSPKKNIFISPVSISMALAMLSLGTCGHTRAQLLQGLGFNLTERSETEIHQGFQHLHQLFAKSDTSLEMTMGNALFLDGSLELLESFSADIKHYYESEVLAMNFQDWATASRQINSYVKNKTQGKIVDLFSGLDSPAILVLVNYIFFKGTWTQPFDLASTREENFYVDETTVVKVPMMLQSSTISYLHDSELPCQLVQMNYVGNGTVFFILPDKGKMNTVIAALSRDTINRWSAGLTSSQVDLYIPKVTISGVYDLGDVLEEMGIADLFTNQANFSRITQDAQLKSSKVVHKAVLQLNEEGVDTAGSTGVTLNLTSKPIILRFNQPFIIMIFDHFTWSSLFLARVMNPV
Take B1: in the series “Western blot of medium” (same construct), the “expression_or_secretion, other: % of untreated” value is reported as “decreases”.

B2: human CBG (corticosteroid-binding globulin): N347Q (protein)
parent chain: B1 parent chain
As for B2, the “other: protease susceptibility” value in series [1] is on record as “increases”.

B3: human CBG (corticosteroid-binding globulin): T349A (protein)
parent chain: B1 parent chain
Consider B3, for which the “other: protease susceptibility” value in series [1] was “increases”.

B4: human CBG (corticosteroid-binding globulin): tunicamycin (CBG N238) (protein)
parent chain: B1 parent chain
Consider B4, for which, in “Western blot of medium” (same construct), the “expression_or_secretion, other: % of untreated” value is on record as “decreases”.

B5: rat CBG: tunicamycin (protein)
parent chain: MSLALYTCLLWLCTSGLWTAQASTNESSNSHRGLAPTNVDFAFNLYQRLVALNPDKNTLISPVSISMALAMVSLGSAQTQSLQSLGFNLTETSEAEIHQSFQYLNYLLKQSDTGLEMNMGNAMFLLQKLKLKDSFLADVKQYYESEALAIDFEDWTKASQQINQHVKDKTQGKIEHVFSDLDSPASFILVNYIFLRGIWELPFSPENTREEDFYVNETSTVKVPMMVQSGSIGYFRDSVFPCQLIQMDYVGNGTAFFILPDQGQMDTVIAALSRDTIDRWGKLMTPRQVNLYIPKFSISDTYDLKDMLEDLNIKDLLTNQSDFSGNTKDVPLTLTMVHKAMLQLDEGNVLPNSTNGAPLHLRSEPLDIKFNKPFILLLFDKFTWSSLMMSQVVNPA
For the protein B5, the “expression_or_secretion, other: % of untreated” value in “Western blot of medium” is given as “decreases”.

B6: rat CBG: N230D (protein)
parent chain: B5 parent chain
In the case of B6, in series [2], the expression_or_secretion result is reported as “no change”.
